Data published in patent US20240245796A1 (PROFOUNDBIO US, published 2024).

Tests used:
[1] = molecular target: T1, human FOLR1 extracellular domain linked to His tag (human, UniProt P15328 25-233, limits assumed); assay: BLI, global 1:1 fit (125 nM row)
T1 construct: extracellular domain; It may be the same product as m13; also called Hu-FRα; Hu-Ag; not shown: His tag

[2] = molecular target: T2, cynomolgus monkey FOLR1 extracellular domain linked to His tag (cynomolgus monkey, UniProt A0A2K5U044 25-233); assay: BLI, global 1:1 fit (125 nM row)
T2 construct: extracellular domain; Antigen in solution in BLI; It may be the same product as m14; also called Cyno-Ag; not shown: His tag

[3] = molecular target: T1, human FOLR1 extracellular domain linked …; assay: BLI, global 1:1 fit (250 nM row)
[4] = molecular target: T2, cynomolgus monkey FOLR1 extracellular …; assay: BLI, global 1:1 fit (250 nM row)
[5] = molecular target: T1, human FOLR1 extracellular domain linked …; assay: BLI, global 1:1 fit (500 nM row)
[6] = molecular target: T2, cynomolgus monkey FOLR1 extracellular …; assay: BLI, global 1:1 fit (500 nM row)
[7] = molecular target: T1, human FOLR1 extracellular domain linked …; assay: BLI, global 1:1 fit (31.3 nM row)
[8] = molecular target: T3, human FOLR2 extracellular domain linked to His tag (human, UniProt P14207 17-230, limits assumed); assay: BLI, global 1:1 fit (31.3 nM row)
T3 construct: extracellular domain; Antigen in solution in BLI; also called Hu-FRb; not shown: His tag

[9] = molecular target: T1, human FOLR1 extracellular domain linked …; assay: BLI, global 1:1 fit (31.3 nM row); remark: listed apart in the source
[10] = molecular target: T2, cynomolgus monkey FOLR1 extracellular …; assay: BLI, global 1:1 fit (31.3 nM row)
[11] = molecular target: T1, human FOLR1 extracellular domain linked …; assay: BLI, Ag 250 nM over Ab on anti-hIgG Fc tip
[12] = molecular target: T2, cynomolgus monkey FOLR1 extracellular …; assay: BLI, Ag 250 nM over Ab on anti-hIgG Fc tip
[13] = molecular target: T1, human FOLR1 extracellular domain linked …; assay: BLI, Ag 62.5 nM over Ab on anti-hIgG Fc tip
[14] = molecular target: T2, cynomolgus monkey FOLR1 extracellular …; assay: BLI, Ag 62.5 nM over Ab on anti-hIgG Fc tip
[15] = molecular target: T4, rat FOLR1 extracellular domain linked to His tag (rat); assay: BLI, Ag 125 nM; * = below range of quantification
T4 construct: extracellular domain; Antigen in solution in BLI; also called Rat-Ag

[16] = molecular target: T3, human FOLR2 extracellular domain linked …; assay: BLI, Ag 15.6 nM; * = below range of quantification
[17] = molecular target: T5, human FOLR3 extracellular domain linked to His tag (human, UniProt P41439 23-245, limits assumed); assay: BLI, Ag 15.6 nM; * = below range of quantification
T5 construct: extracellular domain; Antigen in solution in BLI; also called Hu-FRg; not shown: His tag

[18] = molecular target: T4, rat FOLR1 extracellular domain linked …; assay: BLI, Ag 31.3 nM; * = below range of quantification
[19] = molecular target: T4, rat FOLR1 extracellular domain linked …; assay: BLI, Ag 7.82 nM; * = below range of quantification
[20] = molecular target: T4, rat FOLR1 extracellular domain linked …; assay: BLI, global 1:1 fit (125 nM row); all responses below quantification
[21] = molecular target: T4, rat FOLR1 extracellular domain linked …; assay: BLI, global 1:1 fit (15.6 nM row); all responses below quantification
[22] = molecular target: T4, rat FOLR1 extracellular domain linked …; assay: BLI, global 1:1 fit (62.5 nM row); all responses below quantification
[23] = molecular target: T6, mouse FOLR1 extracellular domain linked to His tag (mouse, UniProt P35846 25-232, limits assumed); assay: BLI, global 1:1 fit (31.3 nM row); only the 500 nM response quantifiable
T6 construct: extracellular domain; Antigen in solution in BLI; also called Mouse-Ag; not shown: His tag
T6 sequence (P35846 25-232 limits assumed): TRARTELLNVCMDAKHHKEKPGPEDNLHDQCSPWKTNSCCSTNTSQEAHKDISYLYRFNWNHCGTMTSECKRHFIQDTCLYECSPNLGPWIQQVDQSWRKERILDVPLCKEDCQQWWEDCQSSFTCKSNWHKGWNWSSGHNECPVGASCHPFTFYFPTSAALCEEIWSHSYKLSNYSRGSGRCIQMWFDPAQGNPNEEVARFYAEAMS

T1 sequence (P15328 25-233 limits assumed): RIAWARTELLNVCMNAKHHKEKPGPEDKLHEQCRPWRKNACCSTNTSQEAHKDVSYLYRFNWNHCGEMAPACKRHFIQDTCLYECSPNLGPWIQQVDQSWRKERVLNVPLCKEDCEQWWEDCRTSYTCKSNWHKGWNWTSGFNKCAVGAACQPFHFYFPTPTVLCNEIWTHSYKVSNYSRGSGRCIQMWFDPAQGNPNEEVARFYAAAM
T3 sequence (P14207 17-230 limits assumed): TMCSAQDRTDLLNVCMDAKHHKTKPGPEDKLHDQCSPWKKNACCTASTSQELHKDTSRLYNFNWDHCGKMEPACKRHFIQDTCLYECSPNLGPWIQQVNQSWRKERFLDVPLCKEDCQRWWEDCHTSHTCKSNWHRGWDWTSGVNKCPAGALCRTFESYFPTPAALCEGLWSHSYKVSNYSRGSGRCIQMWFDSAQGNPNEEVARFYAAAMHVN
T2 sequence (A0A2K5U044 entry or part of it): as the sequence (P15328 25-233 limits assumed) above, with I2T, W4R, R37K, A146P, H171Y counted along it
T5 sequence (P41439 23-245 limits assumed): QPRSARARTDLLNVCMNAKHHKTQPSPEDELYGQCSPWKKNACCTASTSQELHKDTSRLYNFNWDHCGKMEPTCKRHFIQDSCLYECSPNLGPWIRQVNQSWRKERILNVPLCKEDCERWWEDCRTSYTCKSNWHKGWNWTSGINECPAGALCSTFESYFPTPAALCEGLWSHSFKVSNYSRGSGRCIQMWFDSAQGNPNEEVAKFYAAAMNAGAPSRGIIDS

B1: F131 (antibody, V domains shown)
VH: EVQLLESGGGVVQPGRSLRLSCAASGFTFSSYGMHWVRQAPGKGLEWVAVISYDGSNKYYADSVKGRFTISRANSKNTLYLQMNSLRAEDTAVYYCARPRAYYGAYGSSFDYWGQGTQVTVSS
VL: EIVMTQSPSSVSASVGDRVAITCRASQGISSWLAWYQQKPGKAPKLLIYAASSLQSGVPSRFSGSGSGTDFTLTISSLQPEDFATYYCQQSYSTPLTFGGGTKVDIK
notes: also called clone F131; F131 mAb
Kd [1]: 1.53 nM
koff [1]: 0.000338 s⁻¹
kon [1]: 221000 M⁻¹ s⁻¹
Kd [2]: 8.15 nM
koff [2]: 0.00157 s⁻¹
kon [2]: 193000 M⁻¹ s⁻¹
Kd [3]: 1.53 nM
koff [3]: 0.000338 s⁻¹
kon [3]: 221000 M⁻¹ s⁻¹
Kd [4]: 8.15 nM
koff [4]: 0.00157 s⁻¹
kon [4]: 193000 M⁻¹ s⁻¹
koff [5]: 0.000338 s⁻¹
kon [5]: 221000 M⁻¹ s⁻¹
Kd [6]: 8.15 nM
koff [6]: 0.00157 s⁻¹
kon [6]: 193000 M⁻¹ s⁻¹
Kd [7]: 5.3 nM
koff [7]: 0.0012 s⁻¹
kon [7]: 226000 M⁻¹ s⁻¹
Kd [8]: 142 nM
koff [8]: 0.0784 s⁻¹
kon [8]: 552000 M⁻¹ s⁻¹
Kd [9]: 1.53 nM
koff [9]: 0.000338 s⁻¹
kon [9]: 221000 M⁻¹ s⁻¹
Kd [10]: 8.15 nM
koff [10]: 0.00157 s⁻¹
kon [10]: 193000 M⁻¹ s⁻¹
Response [11]: 0.162
Response [12]: 0.209
Response [13]: 0.12
Response [14]: 0.14
Response [15]: -0.00477
Response [16]: 0.002
Response [17]: -0.00261
Response [18]: -0.00532
Response [19]: -0.00563
koff [20]: 1.03 s⁻¹
kon [20]: 5490 M⁻¹ s⁻¹
koff [21]: 1.03 s⁻¹
kon [21]: 5490 M⁻¹ s⁻¹
koff [22]: 1.03 s⁻¹
kon [22]: 5490 M⁻¹ s⁻¹
Kd [23]: 2960 nM
koff [23]: 0.301 s⁻¹
kon [23]: 102000 M⁻¹ s⁻¹

B2: F131-LD038 (antibody, V domains shown)
VH: B1 VH
VL: B1 VL
modifications: drug-linker LD038 (PB038, maleimide-PEG unit-Val-Cit-PAB-exatecan) on cysteines freed by TCEP reduction; positions not given
notes: Antibody-drug conjugate of F131 (IgG1) with LD038; also called anti-huFOLR-1 conjugate F131-LD038; F131-038
Kd [1]: 4.8 nM
koff [1]: 0.00107 s⁻¹
kon [1]: 224000 M⁻¹ s⁻¹
Kd [2]: 8.82 nM
koff [2]: 0.0016 s⁻¹
kon [2]: 181000 M⁻¹ s⁻¹
Kd [3]: 4.8 nM
koff [3]: 0.00107 s⁻¹
kon [3]: 224000 M⁻¹ s⁻¹
Kd [4]: 8.82 nM
koff [4]: 0.0016 s⁻¹
kon [4]: 181000 M⁻¹ s⁻¹
Kd [5]: 4.8 nM
koff [5]: 0.00107 s⁻¹
kon [5]: 224000 M⁻¹ s⁻¹
Kd [6]: 8.82 nM
koff [6]: 0.0016 s⁻¹
kon [6]: 181000 M⁻¹ s⁻¹
Kd [7]: 4.79 nM
koff [7]: 0.00121 s⁻¹
kon [7]: 252000 M⁻¹ s⁻¹
Kd [8]: 84.4 nM
koff [8]: 0.0813 s⁻¹
kon [8]: 963000 M⁻¹ s⁻¹
Kd [9]: 4.8 nM
koff [9]: 0.00107 s⁻¹
kon [9]: 224000 M⁻¹ s⁻¹
Kd [10]: 8.82 nM
koff [10]: 0.0016 s⁻¹
kon [10]: 181000 M⁻¹ s⁻¹
Response [11]: 0.184
Response [12]: 0.18
Response [13]: 0.129
Response [14]: 0.121
Response [15]: 0.0007
Response [16]: 0.0041
Response [17]: 0.0084
Response [18]: -0.00454
Response [19]: -0.00438
koff [20]: 0.224 s⁻¹
kon [20]: 2.64e+06 M⁻¹ s⁻¹
koff [21]: 0.224 s⁻¹
kon [21]: 2.64e+06 M⁻¹ s⁻¹
koff [22]: 0.224 s⁻¹
kon [22]: 2.64e+06 M⁻¹ s⁻¹
Kd [23]: 2870 nM
koff [23]: 0.266 s⁻¹
kon [23]: 92600 M⁻¹ s⁻¹
